Measured values taken from the MegaScale stability set (Tsuboyama et al. 2023).

B1: EEHEE_rd4_0763 (parent)
chain: LTVHVGNVTYHFDNPEQAEEWAKRMAKKYQGQIHVKDGQFRIE
B2: 2K2A (parent)
chain: ELREAFRLYDKEGNGYISTDVMREILAELDETLSSEDLDAMIDEIDADGSGTVDFEEFMGVMT

Variants of: B1
Assay: folding stability dG (cDNA display proteolysis); higher = more stable
Conditions: PBS, room temperature

Folding stability dG [kcal/mol] of substitutions, site by site:
R41: H 2.48 | P 1.21 | D 1.34 | W 3.13 | E 1.59 | Q 1.66 | I 2.6 | F 3.1 | L 1.98 | S 1.57 | T 2.02 | K 1.38 | A 1.4 | Y 3.29 | C 2.95 | N 1.66 | V 2.45 | M 1.94 | G 1.3
Q39: R 1.09 | S 1.57 | Y 1.37 | H 1.76 | G 1.7 | C 2.92 | E 1.88 | N 1.66 | K 1.23 | A 1.71 | M 1.36 | L 0.835 | W 1.24 | V 1.57 | D 1.63 | I 1.52 | P 0.884 | F 1.17 | T 1.29
I42: A 1.02 | F 1.02 | R 0.894 | M 0.632 | L 0.845 | T 1.08 | Y 1.12 | K 0.942 | D 1.17 | E 1.08 | G 1.2 | Q 0.913 | H 1.12 | S 1.06 | P 1.14 | W 1.32 | N 1.05 | V 1.58
K36: S 1.69 | L 1.7 | R 1.51 | W 1.65 | C 2.46 | H 1.75 | Q 1.79 | V 2.24 | Y 1.7 | P 0.849 | F 1.79 | D 1.51 | E 1.84 | N 1.49 | T 1.73 | I 2.15 | M 1.67 | A 1.49 | G 1.39
G38: V 0.809 | F 1.1 | I 0.869 | H 1.02 | K 0.828 | A 0.755 | C 2.15 | N 1.36 | T 0.621 | M 0.911 | W 0.872 | E 1.07 | P 1.18 | Y 0.909 | S 0.873 | D 1.25 | R 0.874 | Q 0.9 | L 1.18
F40: P 1.01 | Q 0.978 | E 1.15 | M 1.74 | D 1.03 | G 0.985 | I 2.25 | H 1.02 | N 1.14 | W 1.88 | A 1.06 | T 1.2 | Y 1.78 | R 1 | K 1.04 | S 1.03 | V 1.55 | L 2.01
H34: T 2.03 | V 2.26 | W 1.42 | R 1.55 | S 1.83 | Y 1.79
V35: I 1.74 | S 1.15 | F 2.22 | E 1.21 | L 1.62 | A 0.96 | T 1.18 | W 1.81 | H 1.21 | Y 2.19 | C 2.27 | P 0.636 | M 1.61 | G 0.956 | D 0.963 | R 1.08 | N 1.18 | Q 1.2 | K 1.17
E43: Y 1.71 | Q 1.29 | N 1.06 | K 1.23 | L 1.76 | C 3.04 | S 1.4 | A 1.34 | D 1.44 | F 1.69 | T 1.66 | G 1.26 | W 1.55 | V 1.99 | P 1.15 | H 1.44 | I 2 | R 1.36 | M 1.5
D37: S 0.634 | A 0.671 | K 0.884 | P 0.309 | C 2.15 | F 0.868 | I 0.903 | Q 0.814 | Y 0.742 | G 1.12 | H 0.769 | E 1.23 | N 1.43 | L 1.12 | M 0.773 | T 0.617 | R 0.615 | W 0.774 | V 0.669

Variants of: B2
Assay: as above
Conditions: PBS, room temperature

Folding stability dG [kcal/mol] of substitutions, site by site:
E1: L 2.19 | S 2.28 | I 2.02 | W 2.65 | P 1.84 | V 1.98 | F 2.36 | N 2.25 | A 2.29 | Y 2.41 | T 2.21 | M 2.02 | G 2.03 | R 2.25 | H 2.1 | Q 2.08 | D 2.41 | K 2.27
F6: R 0.468 | I 0.623 | M 0.623 | W 2.18 | Y 0.586 | C 1.79 | V 0.529 | D 0.525 | E 0.086 | A 0.316 | S 0.268 | P 0.281 | H 0.31 | G -0.227 | N 0.361 | T 0.266 | Q 0.462 | K 0.192 | L 0.489
R7: Q 1.96 | F 1.61 | C 2.22 | N 2.06 | E 1.8 | I 1.93 | Y 1.67 | G 1.64 | L 1.93 | D 1.81 | W 1.76 | M 2.12 | S 1.97 | H 1.72 | V 1.62 | P 0.375 | K 2.12 | A 2.09 | T 1.75
E4: G 0.935 | L 1.53 | P 0.889 | V 1.39 | W 1.41 | F 1.32 | R 1.6 | K 1.64 | M 1.39 | I 1.43 | A 1.77 | N 1.4 | T 1.23 | Q 1.46 | S 1.24 | C 2.85 | H 1.36 | D 2 | Y 1.43
A5: T 2.14 | S 1.39 | Q 2.3 | P 0.29 | Y 2.59 | N 1.13 | G 1 | V 2.6 | D 1.18 | K 2.72 | I 2.78 | E 1.21 | F 2.74 | R 2.66 | W 2.97 | L 3 | H 1.76 | C 3.22 | M 2.91
Y9: K 0.775 | F 1.59 | H 1.59 | D 0.261 | E 0.654 | I 1.31 | G 0.24 | L 2.07 | A 1.56 | C 1.94
R3: S 1.42 | T 1.44 | D 1.62 | E 2.16 | F 2.11 | L 2.2 | Q 1.71 | H 1.71 | K 1.86 | V 1.77 | A 1.99 | N 1.34 | Y 2.48 | P 0.63 | I 1.99 | W 2.29 | M 1.93 | G 1.48
L8: N 1.85 | E 1.52 | Y 1.98 | I 1.8 | R 2.38 | K 2.44 | Q 2.05 | H 2.01 | V 2.07 | F 2.1 | M 2.05 | S 1.92 | G 1.73 | A 2.18 | T 1.94 | W 1.83 | D 0.997 | P 0.853
L2: E 0.678 | Y 1.96 | T 0.594 | H 1.16 | P 0.726 | K 0.383 | S 0.529 | D 0.869 | C 2.73 | Q 0.705 | A 1.23 | G 0.65 | M 1.74 | F 1.88 | N 0.689 | R 0.34 | W 2.66 | V 1.14 | I 1.51
